In patent publication US20180030151A1 (MOGAM INSTITUTE FOR BIOMEDICAL RESEARCH, published 2018):
Numbering of substitutions follows the chain as printed. Read-outs that look alike come from different tables or passages of the source.

Assays:
Experiment in all cases: cell-based or functional assay
[1] = target: T1, recombinant human TFPI (tissue factor pathway inhibitor) (human, UniProt P10646 29-304)
[2] = target: T1, recombinant human TFPI (tissue factor …); remark: listed apart in the source
[3] = target: T1, recombinant human TFPI (tissue factor …); remark: listed apart in the source
[4] = target: T1, recombinant human TFPI (tissue factor …); remark: listed apart in the source
[5] = target: T1, recombinant human TFPI (tissue factor …); remark: listed apart in the source

B1: clone 1 (antibody, V domains shown)
VH: EVQLVESGGGLVKPGGSLRLSCAASGFTFSSYAMNWVRQAPGKGLEWVGTITTGGSYTYYADSVDGRFTISRDNAKNSLYLQMNSLRAEDTAVYYCARQDGNFLMDYWGQGTLVTVSS
VL: DVVMTQTPLSLPVTLGQPASISCKSSPSLLDSDGKTYLNWLQQRPGQSPKRLIYLVSKLDSGVPDRFTGSGSGTDFTLKISRVEAEDVGVYYCWQGTHFPFTFGQGTKVEIKR
- FXa assay % of FXa alone, 2.5 nM Ab, 10 nM TFPI [1]: 6.3%
- FXa assay % of FXa alone, 5 nM Ab, 10 nM TFPI [1]: 17.1%
- FXa assay % of FXa alone, 10 nM Ab, 10 nM TFPI [1]: 50.1%
- FXa assay % of FXa alone, 20 nM Ab, 10 nM TFPI [1]: 72%
- FXa assay OD, 2.5 nM Ab, 10 nM TFPI [1]: 0.048
- FXa assay OD, 5 nM Ab, 10 nM TFPI [1]: 0.131
- FXa assay OD, 10 nM Ab, 10 nM TFPI [1]: 0.381
- FXa assay OD, 20 nM Ab, 10 nM TFPI [1]: 0.548

B2: clone 1238 (antibody, V domains shown)
VH: B1 VH with G49S, D65E, N102H
VL: B1 VL with P27Q, S32V
- FXa assay % of FXa alone, 2.5 nM Ab, 10 nM TFPI [2]: 4.5%
- FXa assay % of FXa alone, 5 nM Ab, 10 nM TFPI [2]: 13.2%
- FXa assay % of FXa alone, 10 nM Ab, 10 nM TFPI [2]: 5.6%
- FXa assay % of FXa alone, 20 nM Ab, 10 nM TFPI [2]: 63.2%
- FXa assay OD, 2.5 nM Ab, 10 nM TFPI [2]: 0.039
- FXa assay OD, 5 nM Ab, 10 nM TFPI [2]: 0.115
- FXa assay OD, 10 nM Ab, 10 nM TFPI [2]: 0.0485
- FXa assay OD, 20 nM Ab, 10 nM TFPI [2]: 0.55

B3: clone 1001 (antibody, V domains shown)
VH: B1 VH with G49S
VL: B1 VL with P27Q, S32I
- FXa assay % of FXa alone, 2.5 nM Ab, 10 nM TFPI [3]: 6.4%
- FXa assay % of FXa alone, 5 nM Ab, 10 nM TFPI [3]: 10.3%
- FXa assay % of FXa alone, 10 nM Ab, 10 nM TFPI [3]: 66.9%
- FXa assay % of FXa alone, 20 nM Ab, 10 nM TFPI [3]: 73.9%
- FXa assay OD, 2.5 nM Ab, 10 nM TFPI [3]: 0.031
- FXa assay OD, 5 nM Ab, 10 nM TFPI [3]: 0.05
- FXa assay OD, 10 nM Ab, 10 nM TFPI [3]: 0.324
- FXa assay OD, 20 nM Ab, 10 nM TFPI [3]: 0.357

B4: clone 3120 (antibody, V domains shown)
VH: B1 VH with G49S, D65E, N102Y
VL: B1 VL with P27Q, S32I
- FXa assay % of FXa alone, 2.5 nM Ab, 10 nM TFPI [4]: 6.4%
- FXa assay % of FXa alone, 5 nM Ab, 10 nM TFPI [4]: 9.1%
- FXa assay % of FXa alone, 10 nM Ab, 10 nM TFPI [4]: 33.4%
- FXa assay % of FXa alone, 20 nM Ab, 10 nM TFPI [4]: 81.3%
- FXa assay OD, 2.5 nM Ab, 10 nM TFPI [4]: 0.0495
- FXa assay OD, 5 nM Ab, 10 nM TFPI [4]: 0.07
- FXa assay OD, 10 nM Ab, 10 nM TFPI [4]: 0.258
- FXa assay OD, 20 nM Ab, 10 nM TFPI [4]: 0.626

B5: clone 4206 (antibody, V domains shown)
VH: B1 VH with G49S, Y57H, D65E, N84D
VL: B1 VL with P27Q, S32V, F99L
- FXa assay % of FXa alone, 2.5 nM Ab, 10 nM TFPI [5]: 4.7%
- FXa assay % of FXa alone, 5 nM Ab, 10 nM TFPI [5]: 6.1%
- FXa assay % of FXa alone, 10 nM Ab, 10 nM TFPI [5]: 7.1%
- FXa assay % of FXa alone, 20 nM Ab, 10 nM TFPI [5]: 38.6%
- FXa assay OD, 2.5 nM Ab, 10 nM TFPI [5]: 0.038
- FXa assay OD, 20 nM Ab, 10 nM TFPI [5]: 0.314

B6: clone 4287 (antibody, V domains shown)
VH: EVQLVESGGGLVKPGGSLRLSCAASGFTFSKYAMNWFRQAPGKGLEWVSTITTGGSYTYYADSVEGRFTISRDNAKNSLYLQMNSLRAEDTAVYYCARQHPYGNFLMDYWGQGTLVTVSS
VL: B1 VL with P27Q, S32I
- FXa assay % of FXa alone, 2.5 nM Ab, 10 nM TFPI [2]: 3.4%
- FXa assay % of FXa alone, 5 nM Ab, 10 nM TFPI [2]: 3.5%
- FXa assay % of FXa alone, 10 nM Ab, 10 nM TFPI [2]: 3.3%
- FXa assay % of FXa alone, 20 nM Ab, 10 nM TFPI [2]: 2.5%

B7: clone 7 (antibody, V domains shown)
VH: B1 VH
VL: B1 VL with S32V
- FXa assay % of FXa alone, 2.5 nM Ab, 10 nM TFPI [1]: 8.9%
- FXa assay % of FXa alone, 5 nM Ab, 10 nM TFPI [1]: 31%
- FXa assay % of FXa alone, 10 nM Ab, 10 nM TFPI [1]: 72.1%
- FXa assay % of FXa alone, 20 nM Ab, 10 nM TFPI [1]: 75.4%
- FXa assay OD, 2.5 nM Ab, 10 nM TFPI [1]: 0.0675
- FXa assay OD, 5 nM Ab, 10 nM TFPI [1]: 0.236
- FXa assay OD, 10 nM Ab, 10 nM TFPI [1]: 0.549
- FXa assay OD, 20 nM Ab, 10 nM TFPI [1]: 0.574

B8: clone 1024 (antibody, V domains shown)
VH: B1 VH with N35S, G49S
VL: B1 VL with P27Q, S32L
- FXa assay % of FXa alone, 2.5 nM Ab, 10 nM TFPI [3]: 4.6%
- FXa assay % of FXa alone, 5 nM Ab, 10 nM TFPI [3]: 6.2%
- FXa assay % of FXa alone, 10 nM Ab, 10 nM TFPI [3]: 20.4%
- FXa assay % of FXa alone, 20 nM Ab, 10 nM TFPI [3]: 42.7%
- FXa assay OD, 2.5 nM Ab, 10 nM TFPI [3]: 0.0225
- FXa assay OD, 5 nM Ab, 10 nM TFPI [3]: 0.03
- FXa assay OD, 10 nM Ab, 10 nM TFPI [3]: 0.0985
- FXa assay OD, 20 nM Ab, 10 nM TFPI [3]: 0.206

B9: clone 3131 (antibody, V domains shown)
VH: B1 VH with N35S, G49S, D65Q, N102Q
VL: B1 VL with P27Q, S32I
- FXa assay % of FXa alone, 2.5 nM Ab, 10 nM TFPI [4]: 6.6%
- FXa assay % of FXa alone, 5 nM Ab, 10 nM TFPI [4]: 7.7%
- FXa assay % of FXa alone, 10 nM Ab, 10 nM TFPI [4]: 14.9%
- FXa assay % of FXa alone, 20 nM Ab, 10 nM TFPI [4]: 61.6%
- FXa assay OD, 10 nM Ab, 10 nM TFPI [4]: 0.115
- FXa assay OD, 20 nM Ab, 10 nM TFPI [4]: 0.474

B10: clone 1234 (antibody, V domains shown)
VH: B1 VH with G49S, D65Q
VL: B1 VL with P27Q, S32I, K79E
- FXa assay % of FXa alone, 2.5 nM Ab, 10 nM TFPI [2]: 3.8%
- FXa assay % of FXa alone, 5 nM Ab, 10 nM TFPI [2]: 3.6%
- FXa assay % of FXa alone, 10 nM Ab, 10 nM TFPI [2]: 4.5%
- FXa assay % of FXa alone, 20 nM Ab, 10 nM TFPI [2]: 4%

B11: clone 1104 (antibody, V domains shown)
VH: B1 VH with Y57H, D65Q
VL: B1 VL with P27Q, S32V
- FXa assay % of FXa alone, 2.5 nM Ab, 10 nM TFPI [3]: 8.5%
- FXa assay % of FXa alone, 5 nM Ab, 10 nM TFPI [3]: 28.3%
- FXa assay % of FXa alone, 10 nM Ab, 10 nM TFPI [3]: 60%
- FXa assay % of FXa alone, 20 nM Ab, 10 nM TFPI [3]: 69.2%
- FXa assay OD, 2.5 nM Ab, 10 nM TFPI [3]: 0.041
- FXa assay OD, 5 nM Ab, 10 nM TFPI [3]: 0.137
- FXa assay OD, 10 nM Ab, 10 nM TFPI [3]: 0.29
- FXa assay OD, 20 nM Ab, 10 nM TFPI [3]: 0.335

B12: clone 10 (antibody, V domains shown)
VH: B1 VH with G49S, D65Q
VL: B1 VL with S32V
- FXa assay % of FXa alone, 2.5 nM Ab, 10 nM TFPI [1]: 9.6%
- FXa assay % of FXa alone, 5 nM Ab, 10 nM TFPI [1]: 5.1%
- FXa assay % of FXa alone, 10 nM Ab, 10 nM TFPI [1]: 11.8%
- FXa assay % of FXa alone, 20 nM Ab, 10 nM TFPI [1]: 38.4%
- FXa assay OD, 2.5 nM Ab, 10 nM TFPI [1]: 0.073
- FXa assay OD, 5 nM Ab, 10 nM TFPI [1]: 0.0385
- FXa assay OD, 10 nM Ab, 10 nM TFPI [1]: 0.09
- FXa assay OD, 20 nM Ab, 10 nM TFPI [1]: 0.292

B13: clone 4141 (antibody, V domains shown)
VH: B1 VH with Y57H, D65E, N102Y
VL: B1 VL with P27Q, S32V
- FXa assay % of FXa alone, 2.5 nM Ab, 10 nM TFPI [4]: 6.4%
- FXa assay % of FXa alone, 5 nM Ab, 10 nM TFPI [4]: 8.4%
- FXa assay % of FXa alone, 10 nM Ab, 10 nM TFPI [4]: 16.7%
- FXa assay % of FXa alone, 20 nM Ab, 10 nM TFPI [4]: 80.5%
- FXa assay OD, 2.5 nM Ab, 10 nM TFPI [4]: 0.0495
- FXa assay OD, 10 nM Ab, 10 nM TFPI [4]: 0.129
- FXa assay OD, 20 nM Ab, 10 nM TFPI [4]: 0.62

B14: clone 1224 (antibody, V domains shown)
VH: B1 VH with N35S, G49S
VL: B1 VL with P27Q, S32I
- FXa assay % of FXa alone, 2.5 nM Ab, 10 nM TFPI [2]: 5.1%
- FXa assay % of FXa alone, 5 nM Ab, 10 nM TFPI [2]: 6.9%
- FXa assay % of FXa alone, 10 nM Ab, 10 nM TFPI [2]: 29%
- FXa assay % of FXa alone, 20 nM Ab, 10 nM TFPI [2]: 66.1%
- FXa assay OD, 5 nM Ab, 10 nM TFPI [2]: 0.06
- FXa assay OD, 10 nM Ab, 10 nM TFPI [2]: 0.252
- FXa assay OD, 20 nM Ab, 10 nM TFPI [2]: 0.576

B15: clone 4208 (antibody, V domains shown)
VH: B1 VH with P14S, N35S, D65Q
VL: B1 VL with P27Q, S32T
- FXa assay % of FXa alone, 2.5 nM Ab, 10 nM TFPI [5]: 5%
- FXa assay % of FXa alone, 5 nM Ab, 10 nM TFPI [5]: 6.1%
- FXa assay % of FXa alone, 10 nM Ab, 10 nM TFPI [5]: 12.2%
- FXa assay % of FXa alone, 20 nM Ab, 10 nM TFPI [5]: 53.1%
- FXa assay OD, 2.5 nM Ab, 10 nM TFPI [5]: 0.041
- FXa assay OD, 10 nM Ab, 10 nM TFPI [5]: 0.099
- FXa assay OD, 20 nM Ab, 10 nM TFPI [5]: 0.431

B16: clone 3115 (antibody, V domains shown)
VH: B1 VH with Y57H
VL: B1 VL with P27Q, S32V
- FXa assay % of FXa alone, 2.5 nM Ab, 10 nM TFPI [4]: 6.2%
- FXa assay % of FXa alone, 5 nM Ab, 10 nM TFPI [4]: 8.1%
- FXa assay % of FXa alone, 10 nM Ab, 10 nM TFPI [4]: 16.2%
- FXa assay % of FXa alone, 20 nM Ab, 10 nM TFPI [4]: 69.1%
- FXa assay OD, 10 nM Ab, 10 nM TFPI [4]: 0.125
- FXa assay OD, 20 nM Ab, 10 nM TFPI [4]: 0.532

B17: clone 1216 (antibody, V domains shown)
VH: B1 VH with S31H, G49S, D65E, N102H
VL: B1 VL with P27Q, S32I, F99L
- FXa assay % of FXa alone, 2.5 nM Ab, 10 nM TFPI [2]: 3.6%
- FXa assay % of FXa alone, 5 nM Ab, 10 nM TFPI [2]: 4%
- FXa assay % of FXa alone, 10 nM Ab, 10 nM TFPI [2]: 3.6%
- FXa assay % of FXa alone, 20 nM Ab, 10 nM TFPI [2]: 3.3%
